Common to all, as to assay: EMSA
In general terms: Mobility shift assays separate free from complexed probe on a gel.

Series [1] concerns the target T1, Runx1 Runt domain (CBF alpha2);CBFbeta (human?;human?, UniProt Q01196;Q13951 50-183;2-135, |).
In series [2] the target is T1, Runx1 Runt domain (CBF alpha2);CBFbeta. This is another data set of the same source.
Series [3] shares this target. This is another data set of the same source.
The target is the same in series [4]. This is another data set of the same source.

Like-named read-outs stand apart in the source and are kept apart here.

T1 sequence (Q01196 50-183, chain 1 of 2): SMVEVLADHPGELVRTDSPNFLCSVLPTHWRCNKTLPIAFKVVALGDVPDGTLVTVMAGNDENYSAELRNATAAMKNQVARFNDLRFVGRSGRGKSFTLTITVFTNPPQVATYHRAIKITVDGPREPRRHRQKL
T1 sequence (Q13951 2-135, chain 2 of 2): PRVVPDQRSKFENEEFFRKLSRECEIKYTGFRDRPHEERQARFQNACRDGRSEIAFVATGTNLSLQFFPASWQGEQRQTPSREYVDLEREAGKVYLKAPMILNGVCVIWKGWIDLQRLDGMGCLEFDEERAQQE

B1: GM450Δ443 (dsDNA)
DNA 1: AGATCTCTCACTGCCCACAAAC
DNA 2: AGGTTTGTGGGCAGTGAGAGAT
With B1, the binding result in series [1] is “binds”.

B2: Crystal palindrome (dsDNA)
DNA 1: AGATGTGCGGTCGACCGCAAAC
DNA 2: AGGTTTGCGGTCGACCGCACAT
B2: the binding result in series [2] is recorded as “binds”.

B3: WT GM450 (dsDNA)
DNA 1: AGATGTGTGGCTGCCCACAAAC
DNA 2: AGGTTTGTGGGCAGCCACACAT
As for B3, in series [3], the binding result is reported as “binds”.

B4: GM450Δ443/452 (dsDNA)
DNA 1: AGATCTCTCACTGCGTAGAAAC
DNA 2: AGGTTTCTACGCAGTGAGAGAT
B4: the binding result in series [4] is given as “no binding”.

B5: GM450Δ452 (dsDNA)
DNA 1: AGATGTGTGGCTGCGTAGAAAC
DNA 2: AGGTTTCTACGCAGCCACACAT
Take B5: the binding result in series [1] was “binds”.

The record behind these values is article PMC2952845.
